Test results from publication PMC8408612.
Each block holds one substance with its values, some of them ahead of it.

How the values were obtained:
Assay in all cases: co-IP
[1] = biological target: endogenous dynein intermediate chain (DIC) of COS7 cells (African green monkey (endogenous in COS7))
[2] = biological target: Flag-CRMP4 (UniProt Q14195)
[3] = biological target: endogenous mouse dynein intermediate chain (DIC) (mouse (endogenous in sciatic nerve and primary motor neurons)) (UniProt O88485)
Sequence of UniProt O88485 (O88485 whole entry): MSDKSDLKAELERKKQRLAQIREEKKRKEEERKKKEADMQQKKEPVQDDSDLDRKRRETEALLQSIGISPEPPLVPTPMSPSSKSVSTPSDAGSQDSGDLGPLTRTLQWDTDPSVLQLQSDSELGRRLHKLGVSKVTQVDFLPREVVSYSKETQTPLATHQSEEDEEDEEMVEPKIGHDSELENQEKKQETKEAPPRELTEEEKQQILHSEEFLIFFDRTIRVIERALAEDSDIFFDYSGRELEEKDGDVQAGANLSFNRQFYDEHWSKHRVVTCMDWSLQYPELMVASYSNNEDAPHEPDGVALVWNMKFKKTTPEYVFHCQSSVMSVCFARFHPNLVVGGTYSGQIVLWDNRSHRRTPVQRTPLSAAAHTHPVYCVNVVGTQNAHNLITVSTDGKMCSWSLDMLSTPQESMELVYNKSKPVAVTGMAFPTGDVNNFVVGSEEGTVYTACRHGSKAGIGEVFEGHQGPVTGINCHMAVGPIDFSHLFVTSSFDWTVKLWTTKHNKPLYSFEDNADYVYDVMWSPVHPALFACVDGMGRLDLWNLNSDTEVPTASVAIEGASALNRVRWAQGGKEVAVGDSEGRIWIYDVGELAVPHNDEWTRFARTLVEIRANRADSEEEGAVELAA

Sequence of Flag-CRMP4 (Q14195 whole entry): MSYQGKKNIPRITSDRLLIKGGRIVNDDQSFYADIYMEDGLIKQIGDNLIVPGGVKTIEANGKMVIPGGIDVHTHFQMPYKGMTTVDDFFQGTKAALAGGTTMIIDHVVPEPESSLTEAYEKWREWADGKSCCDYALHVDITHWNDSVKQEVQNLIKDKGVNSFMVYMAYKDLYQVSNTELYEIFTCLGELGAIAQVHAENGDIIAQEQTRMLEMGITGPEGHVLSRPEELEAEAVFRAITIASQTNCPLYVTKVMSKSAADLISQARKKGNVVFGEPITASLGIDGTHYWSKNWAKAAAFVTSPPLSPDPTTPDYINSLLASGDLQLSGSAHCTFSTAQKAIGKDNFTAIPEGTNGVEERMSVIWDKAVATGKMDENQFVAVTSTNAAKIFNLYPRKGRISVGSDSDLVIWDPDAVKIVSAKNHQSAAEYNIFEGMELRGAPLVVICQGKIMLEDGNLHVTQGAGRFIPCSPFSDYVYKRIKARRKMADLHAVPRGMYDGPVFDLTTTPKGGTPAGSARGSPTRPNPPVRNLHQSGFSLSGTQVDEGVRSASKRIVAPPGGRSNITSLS

- CRMP4 band normalised to DIC band (mean), SOD1G93A sciatic nerve [3]: 1.48
- CRMP4 band normalised to DIC band (mean), WT sciatic nerve [3]: 0.28
Substance: endogenous mouse CRMP4 (from UniProt Q62188 1-570) (natural protein)

- CRMP4 band co-precipitated with DIC (densitometry, mean) [1]: 1.47
Substance: full-length GFP-CRMP4 (from UniProt Q14195 1-570) (natural protein)

- CRMP4 band normalised to DIC band (mean) [1]: 1.62
Substance: mutated Flag-CRMP4-I141V (from UniProt Q14195 1-570) (natural protein)

Second part, the substance before the results:

Substance: CRMP4 (transfected together with AAV9-GFP or AAV9-GFP-50aa, Figure 4H) (from UniProt Q14195 1-570) (natural protein)
- CRMP4 band normalised to DIC band (mean), cells with GFP-50aa [1]: 0.54
- CRMP4 band normalised to DIC band (mean), control cells with GFP [1]: 1

Substance: Flag-CRMP4 (from UniProt Q14195 1-570) (natural protein)
- CRMP4 band normalised to DIC band (mean) [1]: 1

Substance: dynactin (p150), endogenous in COS7 cells (natural protein)
- dynactin band normalised to Flag-CRMP4 band (mean), no peptide (Fig 4E) [2]: 0.77
- dynactin band normalised to Flag-CRMP4 band (mean), no peptide (Fig 4G) [2]: 1.92
- dynactin band normalised to Flag-CRMP4 band (mean), with peptide-1 [2]: 1.44
- dynactin band normalised to Flag-CRMP4 band (mean), with peptide-2 [2]: 1.34
- dynactin band normalised to Flag-CRMP4 band (mean), with peptide-3 [2]: 1.8
- dynactin band normalised to Flag-CRMP4 band (mean), with peptide-4 [2]: 1.13
- dynactin band normalised to Flag-CRMP4 band (mean), with peptides 1-4 (Fig 4E) [2]: 0.17
